Legend:
[1] = biological target: CD16A on in vitro differentiated human macrophages (human, UniProt P08637 17-254); experiment: cell-based or functional assay
[2] = biological target: T1, human FOLR1 endogenously expressed on tumor cell lines (human, UniProt P15328 25-234); experiment: flow cytometry on HCC-827 cells, 37 C, one-site fit of MFI, mean
T1 construct: whole, on cells; also called FOLR1-positive tumor cell lines; FOLR1+ target cells
Description: (§1) Cells were collected and centrifuged at 400×g, 5 min, 4° C. Cell pellets were resuspended in FACS buffer (PBS (Invitrogen, cat.: 392-0434) containing 2% h.i. FCS (Invitrogen, cat.: 10500-064), and 0.1% sodium azide (Sigma, cat.: S8032)) at 1-5×10⁶ cells/mL. 100 μL/well of the cell suspension were transferred into U-shaped, 96-well micro plates (0.1-0.5×10⁶ cells per well), cells were pelleted at 400×g, 5 min, 4° C., and resuspended in 100 μL/well of serial dilutions of the indicated antibodies in FACS buffer. After 40-50 min incubation at 37° C., cells were washed 3-times with ice-cold FACS buffer. […] After the final incubation step, cells were washed 2-times with ice-cold FACS buffer, and the cell pellet was resuspended in 100 μL FACS buffer. Fluorescence intensities of >1×10⁴ viable cells were analyzed by flow cytometry and the median fluorescence intensity (MFI) was determined for each sample.
(§2) Equilibrium dissociation constants (KD) of antibody binding, mean and standard deviation (SD) were calculated by plotting MFI values and fitting a non-linear regression model for one-site binding to hyperbolic dose-response curves using GraphPad Prism for Windows (v9; GraphPad Software; La Jolla California USA).
(§3) Specific antibody binding capacity (SABC) as a marker for FOLR1 expression level on cells was determined on all tumor cell lines using QIFIKIT.

[3] = biological target: T1, human FOLR1 endogenously expressed on …; experiment: flow cytometry on IGROV-1 cells, 37 C, one-site fit of MFI, mean
Description: as §1, §2, §3

[4] = biological target: T1, human FOLR1 endogenously expressed on …; experiment: flow cytometry on OVCAR-3 cells, 37 C, one-site fit of MFI, mean
Description: as §1, §2, §3

[5] = biological target: T1, human FOLR1 endogenously expressed on …; experiment: flow cytometry on NCI-H2110 cells, 37 C, one-site fit of MFI, mean
Description: as §1, §2, §3

[6] = biological target: T2, human FOLR1-mFc_Avi-tag (sAg_303) (human, UniProt P15328 25-234, limits assumed); experiment: ELISA, plate coated with human FOLR1-mFc_Avi-tag (sAg_303), one-site fit, mean of 3
T2 construct: also called human FOLR1 (sAg_303); recombinant human FOLR1
T2 sequence (P15328 25-234 limits assumed): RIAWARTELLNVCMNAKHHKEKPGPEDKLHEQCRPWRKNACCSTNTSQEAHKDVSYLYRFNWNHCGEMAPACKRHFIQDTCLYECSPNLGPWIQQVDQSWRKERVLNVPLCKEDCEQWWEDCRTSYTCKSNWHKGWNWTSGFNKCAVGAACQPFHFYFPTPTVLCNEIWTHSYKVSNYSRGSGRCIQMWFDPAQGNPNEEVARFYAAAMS
Description: (§4) 96 well ELISA plates (F96 Maxisorp Immuno Plate, Nunc, cat: 442404) were coated overnight at 4° C. with 50 μL/well of 10 μg/mL human FOLR1-mFc_Avi-tag in DPBS. After overnight incubation plates were washed three times with PBST and blocked with Candor Blocking solution for 2 h at RT under mild agitation. […] After incubation with the secondary antibodies, the plate was washed five times with PBST and one time with PBS. Chromogenic substrate (1:1 mixture of TMB:TMBB, SeraCare cat: 5120-0048 and 5120-0037) was added and the reaction was stopped by addition of an equal volume of 0.5 M H₂SO₄ after sufficient color development. Absorbance at 450 nm was measured in an ELISA plate reader (Sunrise Absorbance Reader 901000833, Schoeller Instruments). The absorbance values were corrected by subtracting the background of the respective secondary antibody and fitted with a one site binding function (hyperbola) using GraphPad Prism (version 9.3.1. GraphPad Software, La Jolla California USA). KD is the concentration of ligand required to reach half-maximal binding.

[7] = biological target: T2, human FOLR1-mFc_Avi-tag (sAg_303); experiment: ELISA, plate coated with human FOLR1-mFc_Avi-tag, anti-human Fab-HRP detection, A450
Description: as §4

[8] = biological target: T1, human FOLR1 endogenously expressed on …; experiment: flow cytometry on IGROV-1 cells (FOLR1 high) at 37 °C, FITC anti-human IgG detection
Description: as §1

[9] = biological target: T1, human FOLR1 endogenously expressed on …; experiment: flow cytometry on OVCAR-3 cells (FOLR1 medium) at 37 °C, FITC anti-human IgG detection
Description: as §1

[10] = biological target: T3, cynomolgus CD16 expressed on CHO cells (cAg_36) (cynomolgus, UniProt Q8SPW2 17-254); experiment: flow cytometry on cyCD16-transfected CHO cells (cAg_36), on ice, FITC goat anti-human IgG detection
T3 construct: whole, on cells; also called cyCD16
T3 sequence (Q8SPW2 17-254): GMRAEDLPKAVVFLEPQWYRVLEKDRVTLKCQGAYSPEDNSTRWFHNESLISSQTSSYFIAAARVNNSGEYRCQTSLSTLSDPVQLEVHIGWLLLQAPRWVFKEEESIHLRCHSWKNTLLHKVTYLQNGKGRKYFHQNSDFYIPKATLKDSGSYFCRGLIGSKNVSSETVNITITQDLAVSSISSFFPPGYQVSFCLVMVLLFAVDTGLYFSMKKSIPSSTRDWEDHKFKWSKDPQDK
Description: (§5) After washing in FACS buffer, cells were incubated in 50 μL FACS buffer without antibodies or with titrated antibodies starting at a concentration of 1000 nM followed by elven 3-fold serial dilutions for 40-50 min on ice in the dark. […] After washing, binding was measured by flow cytometry and mean fluorescence intensities (MFI) of cell samples were calculated and corrected for background staining using control cells stained with secondary antibodies only.

[11] = biological target: T4, human CD16A (158F) expressed on CHO cells (cAg_34) (human, UniProt P08637 17-254); experiment: flow cytometry on huCD16A (158F)-transfected CHO cells (cAg_34), on ice, FITC goat anti-human IgG detection
T4 construct: also called huCD16A-transfected CHO cells
T4 sequence (P08637 17-254 limits assumed): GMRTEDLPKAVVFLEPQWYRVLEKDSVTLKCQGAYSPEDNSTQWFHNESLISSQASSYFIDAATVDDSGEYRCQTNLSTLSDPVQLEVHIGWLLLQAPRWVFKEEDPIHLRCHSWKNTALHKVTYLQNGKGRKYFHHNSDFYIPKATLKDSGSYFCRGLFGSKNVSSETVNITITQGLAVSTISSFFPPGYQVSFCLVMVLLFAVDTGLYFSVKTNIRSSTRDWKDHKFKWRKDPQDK
Description: as §5

[12] = biological target: T5, human CD16A (158V) expressed on CHO cells (cAg_35) (human, UniProt P08637 17-254); experiment: flow cytometry on huCD16A (158V)-transfected CHO cells (printed sAg_35), on ice, FITC goat anti-human IgG detection
T5 construct: also called huCD16A (158V)
T5 sequence (P08637 17-254 F176V limits assumed): as the sequence (P08637 17-254 limits assumed) above, with F160V counted along it
Description: as §5

[13] = biological target: CD16A endogenously expressed on primary human NK cells (human, UniProt P08637 17-254); experiment: flow cytometry on primary human NK cells at 37 °C, biotinylated antibody, streptavidin-FITC, without polyclonal human IgG
Chain of CD16A endogenously expressed on primary human NK cells (P08637 17-254 limits assumed): as the sequence (P08637 17-254 limits assumed) above
Description: Frozen NK cells were thawed, and viability was determined with trypan blue (Sigma-Aldrich, cat.: T8154). Cells have been centrifuged at 400×g, 5 min, 4° C. Cell pellets were resuspended in FACS buffer PBS (Invitrogen, cat.: 392-0434) containing 2% h.i. FCS (Invitrogen, cat.: 10500-064), and 0.1% sodium azide (Sigma, cat.: S8032) at 2×10⁶ cells/mL. 100 μL/well of the cell suspension were transferred into U-shaped 96 well plates, cells were pelleted at 400×g, 5 min. 4° C., and resuspended in 50 μL/well of diluted antibody constructs. […] After 40-50 minutes' incubation at 37° C., cells were washed 3-times with ice-cold FACS buffer. […] After the final incubation step, cells were washed 2-times with ice-cold FACS buffer, and the cell pellet was resuspended in 50 μL FACS buffer. Fluorescence intensity of >1×10⁴ viable cells was analyzed by flow cytometry and the median fluorescence intensity (MFI) was determined for each sample.

[14] = biological target: T4, human CD16A (158F) expressed on CHO …; experiment: flow cytometry on huCD16A-transfected CHO cells (cAg_34), one-site fit of MFI, mean of 3
Description: (§6) To analyze binding of different antibody constructs to CHO cells transfected with human CD16A (cAg_34), relative to CD16 expression by flow cytometry, 1-2×10⁵ were resuspended in 100 μL FACS buffer (PBS (Invitrogen, cat.: 14190-169) containing 2% heat-inactivated FCS (Invitrogen, cat.: 10270-106), and 0.1% sodium azide (Roth, Karlsruhe, Germany, cat.: A1430.0100)) in round-bottom 96-well microtiter plates. After washing in FACS buffer, cells were incubated in 50 μL FACS buffer without antibodies or with titrated antibodies starting at a concentration of 100 μg/mL followed by ten 5-fold serial dilutions for 30 min on ice in the dark. […] After washing, binding was measured by flow cytometry and mean fluorescence intensities (MFI) of cell samples were calculated and corrected for background staining using control cells stained with secondary antibodies only.
(§7) Equilibrium dissociation constants (KD) of antibody binding were calculated by plotting MFI values and fitting a non-linear regression model for one-site binding to hyperbolic dose-response curves using GraphPad Prism.

[15] = biological target: T4, human CD16A (158F) expressed on CHO …; experiment: flow cytometry on huCD16A-transfected CHO cells (cAg_34), one-site fit of MFI, experiment 1
Description: as §6, §7

[16] = biological target: T4, human CD16A (158F) expressed on CHO …; experiment: flow cytometry on huCD16A-transfected CHO cells (cAg_34), one-site fit of MFI, experiment 2
Description: as §6, §7

[17] = biological target: T4, human CD16A (158F) expressed on CHO …; experiment: flow cytometry on huCD16A-transfected CHO cells (cAg_34), one-site fit of MFI, experiment 3
Description: as §6, §7

[18] = biological target: T4, human CD16A (158F) expressed on CHO …; experiment: flow cytometry on huCD16A-transfected CHO cells, on ice, APC goat anti-human IgG detection
Description: as §6

Chain of CD16A on in vitro differentiated human macrophages (P08637 17-254 limits assumed): as above
T1 sequence (P15328 25-234): as the sequence (P15328 25-234 limits assumed) above

Binder	Phagocytosis [%], 4 h ADCP, DK-MG cells [1] [%]	Phagocytosis [%], 4 h ADCP, HCC-78 cells [1] [%]	Phagocytosis [%], 4 h ADCP, HeLa cells [1] [%]	Kd [2] [nM]	Kd [3] [nM]	Kd [4] [nM]	Kd [5] [nM]	Kd [6] [nM]	EC50 (read off the curve) [7] [nM]	EC50 (read off the curve) [8] [nM]	EC50 (read off the curve) [9] [nM]	binding result [10]	binding result [11]	binding result [12]	binding result [13]	Kd [14] [nM]	Kd [15] [nM]	Kd [16] [nM]	Kd [17] [nM]	EC50 (read off the curve) [18] [nM]
scFv-IgAb_162 (FOLR1×RSV) (bispecific antibody, also called FOLR1/RSV scFv-IgAb_162; FOLR1×RSV(NIST); copies: 2 + 2) heavy: EVQLVESGGGVVQPGRSLRLSCSASGFTFSGYGLSWVRQAPGKGLEWVAMISSGGSYTYYADSVKGRFAISRDNAKNTLFLQMDSLRPEDTGVYFCARHGDDPAWFAYWGQGTPVTVSSASTKGPSVFPLAPSSKSTSGGTAALGCLVKDYFPEPVTVSWNSGALTSGVHTFPAVLQSSGLYSLSSVVTVPSSSLGTQTYICNVNHKPSNTKVDKKVEPKSCDKTHTCPPCPAPEFEGGPSVFLFPPKPKDTLMISRTPEVTCVVVAVSHEDPEVKFNWYVDGVEVHNAKTKPREEQYNSTYRVVSVLTVLHQDWLNGKEYKCKVSNKALPAPIEKTISKAKGQPREPQVYTLPPSREEMTKNQVSLTCLVKGFYPSDIAVEWESNGQPENNYKTTPPVLDSDGSFFLYSKLTVDKSRWQQGNVFSCSVMHEALHNHYTQKSLSLSPGGGGGSGGGGSQVTLRESGPALVKPTQTLTLTCTFSGFSLSTAGMSVGWIRQPPGKALEWLADIWWDDKKHYNPSLKDRLTISKDTSKNQVVLKVTNMDPADTATYYCARDMIFNFYFDVWGQGTTVTVSSGGSGGSGGSGGSGGSGGSDIQMTQSPSTLSASVGDRVTITCSASSRVGYMHWYQQKPGKAPKLLIYDTSKLASGVPSRFSGSGSGTEFTLTISSLQPDDFATYYCFQGSGYPFTFGGGTKVEIK light: DIQLTQSPSSLSASVGDRVTITCSVSSSISSNNLHWYQQKPGKAPKPWIYGTSNLASGVPSRFSGSGSGTDYTFTISSLQPEDIATYYCQQWSSYPYMYTFGQGTKVEIKRTVAAPSVFIFPPSDEQLKSGTASVVCLLNNFYPREAKVQWKVDNALQSGNSQESVTEQDSKDSTYSLSSTLTLSKADYEKHKVYACEVTHQGLSSPVTKSFNRGEC	0	0	0	3.7	5.2	2.5	3	0.06	~0.05	~4	~2	no binding (tested: 1000 nM)	no binding (tested: 1000 nM)	no binding (tested: 1000 nM)	no binding (tested: about 500 nM)					
scFv-IgAb_268 (CD123-1×CD16a1) (bispecific antibody, also called AFM28; CD123×CD16A scFv-IgAb_268) heavy: QVQLQQSGAEVKKPGASVKVSCKASGYTFTDYYMKWVKQSHGKSLEWMGDIIPSNGATFYNQKFKGKATLTVDRSTSTAYMELSSLRSEDTAVYYCARSHLLRASWFAYWGQGTLVTVSSASTKGPSVFPLAPSSKSTSGGTAALGCLVKDYFPEPVTVSWNSGALTSGVHTFPAVLQSSGLYSLSSVVTVPSSSLGTQTYICNVNHKPSNTKVDKKVEPKSCDKTHTCPPCPAPEFEGGPSVFLFPPKPKDTLMISRTPEVTCVVVAVSHEDPEVKFNWYVDGVEVHNAKTKPREEQYNSTYRVVSVLTVLHQDWLNGKEYKCKVSNKALPAPIEKTISKAKGQPREPQVYTLPPSREEMTKNQVSLTCLVKGFYPSDIAVEWESNGQPENNYKTTPPVLDSDGSFFLYSKLTVDKSRWQQGNVFSCSVMHEALHNHYTQKSLSLSPGGGGGSGGGGSGGGGSGGGGSGGGGSGGGGSSYELTQPLSVSVALGQTARITCGGNNIGSKSVHWYQQKPGQAPVLVIYQDKKRPSGIPERFSGSNSGNTATLTISRAQAGDEADYYCQVWDDYIVLFGCGTKLTVLGGSGGSGGSGGSGGSGGSGGSQVQLVQSGAEVKKPGASVKVSCKASGYTFTNYYMQWVRQAPGQCLEWMGIINPSGGVTSYAQKFQGRVTMTRDTSTSTVYMELSSLRSEDTAVYYCARGSAYYYDFADYWGQGTLVTVSS light: not shown																16.3	17.7	7.8	23.5	~8
